Assay results published in a protein production outcome set (Wang et al. 2014).

Test: label from the status in PepcDB records

| Sequence | protein production |
| --- | --- |
| MKLSQQSLSIIESAIQKAVGKYVCNCEQTVVTDIHLQPDQTSGQLNIYNDDDEELANVMVEEWATYDGDDFLENIEPGLRSILCRMKDAGDFDKVTILKPYSFVLVDEDKETVTELLLVDDDTMLVNDELLKGLDKELDDFLKELLEK | failed |
| MLPMLLWLVANLFLAPAAEGFHGMNKTNTWAVILSSSRYFFNLRHTTNALAMYHLCRKHGMDDDHILVFLSDSYACDPRKPNPATIYGAPAQAEQPNLYGCNIRVDYASYDVGVRRFLGVLQGRYDENTPPSRRLDTDENSNIIIYAAGHSAEKFFKFQDSEFMSSTDIADTLMMMWEQRRYRKLVFLVDTCRALSLCLEIKAPNVVCLASSEAHLDSYSHHLDPPSGFTVITRWTFEFLEVLKDSKCRPENGEVTLLQKSFYDFNYGPERLSLPQPLSEPAHFDAVNRPNAIREWKMDEFFCEQDRDKIPVELRYDLF | failed |
| MKIVGIYLAAGKSRRTGPGLHKLYLPTGNTLLGNKALHTSLSSNLSDVIVVSNQPSWLLHYTQVERVHILSCEKSCLGQSYSLHCGLEKAESMNADGVVVMLADQPFITVKLLNSLIDSYEHLPQLDYVAASFQGIPQPPILFSKGIFPSLKKLKGDQGARSIFFDKSFQGKITVYSDAKLFYDVNTIEDYNVIKNSLLLEHHHHHH | failed |
| MKKRLLLFILVLGVCLFTSCGNFVKTNIYFSAAESAFDSGKYEDAIKYYDKVIEADSGNAMAYLGKGLALDALGKYEEALEFFDKAIEINKDLAKAYNAKGTTLASLERYEESLENFKKAAELKPKNSAYQNDVAYGLNNLGRFEEAIQYAEKALKLNPRSGVAYSNKGFALDALGKLDEAIECYDKAIELSPTYTNAYYNKSIAVFKMGKTEEAIELLDKVLEIDPDDLDAITSKGYCLNELGKYEKAIECFDTAIEKYPKDPYPYVCKATSLYYLGKYDNALEECNKAIKLEYTFPDSYIWKAKILVEKGDIEEARKSCDEFLAIAEDASVYDMKGQIYLHEYNYPEAIKLFDKAIEVDPSYEDSYINKIYCLYLQKNYKECIEFATKVQTIFPNSADIPWYIGDCYSIMMEPEKAIEYLKKAHELNPKDVGILTSIAWEYYSLEDYAKASEYAEKAAEISADDESVKYIREKLENQKLPEAEQIVEFVKNNYLYYDKIANFEALANEFKAKGEVGVKDICNFIESIRQKDDMFTFVIHGDDYDLLKYEESISQVTSQQLEPNIHYIKIKSFTASVSWEFKEIIDSIENPEEKVLVIDLRDNLGGLATSSADILDYLLPACTTSYIVYRDGYMYSYYSDAAQTKFKKILVLVNEYSASSSEILALGLKKHLNNVVIIGRPTVGKGVGQLVYENKSKKYMIYLVSFYWNVMEENILGKRIEPDVYVNSSSDAAYMNEVKRQAAR | failed |
| MVSRRGVAGLDFDNRVRSLINTFGLVSVHVQCYFIISDLCLRDSSHQGIFLVSVTRSGCLMVHDFESLYCQSKLGPGSAEDESKHVVHFSYPPGREFDVARWNPSNQNEVACTSRKHDQVLIFDISYMSPKPTEVLQTRQKLSIIGRKISRGLSDVAITSDEDSRIFSPDTLGMVHVWDRRAGVSPCIELSTDRYDSIKSIQIYVDNQTIFGAGKEGIIHIWDLRGGRNSSAFQSRKDVSLTRGELELAMAMSQLPLASLHLAPKLQKIASLKAQSEIVPKEIHSIDVNPSSPHQLAFHLDDGWSGVLDIYKSEVTHVHCPPPAWLDGSNSSADLILRKPSWLPTSSIYVVGSMSEKGIHVLDFHPSSRSPCHVDYDEDTQRNEKRDKCNHRNKFVSLSETVTGCAAHPLNGMIVAGTQNSSLLLIAQMHCSSSSETAEGEL | failed |
| MGTIGKKAAKGASVKFSESSTQAVIKATYLQVFGRDVYEGQRLKVQEIKLENGEISVRDFVRALAKSDLFRKLYWTPFYVCKAIEYIHRRLLGRPTYGRQENNKYFDIASKKGLYAVVDAILDSLEYTETFGEDTVPYERYLTPAGLEHHHHHH | not failed |
| MKYAITGATGHLGQQIVAAMRPLVATTELYLGVHTLSKAQVYQQQGLHIAAIDYQQPEQLRAFFQDSDVLIYIPSKSHDSYSRVQEFENVLAAVQQANVHHFLVMGFIADQVNNPFALSAFYGYVPRRLAGSDINYTIVRNALYADPLVPYLPELIERHNVVYPMADQALSFISQADSAAAFAKVATTPDLLQRGRIYTLTQSRAYTMPELATVLSQVSGQLIGYRPVSLQAFSNMYNQNGEGPMLASMYAGGARGLLATVSDDYQLIMDRPAQSLLDYLQTNYQKS | failed |
| MPQFPWKDNDAELSPLEAFLAEWDDPEAEEEDFRNDFFRGSEGRRKKAAVMLMAIWTVVITLHYWVWGSWLVWALTGALSLQALRLMKATPEEAPPLLTGDASTVPYPQVCLMVAAKNEEAVIGKIVQQLCSLDYPGDRHEVWIVDDNSTDRTPAILDQLRQQYPQLKVVRRGAGASGGKSGALNEVLAQTQGDIVGVFDADANVPKDLLRRVVPYFASPTFGALQVRKAIANEAVNFWTRGQGAEMALDAYFQQQRIVTGGIGELRGNGQFVARQALDAVGGWNEQTITDDLDLTIRLHLHQWKVGILVNPPVEEEGVTTAIALWHQRNRWAEGGYQRYLDYWRWICTQPMGWKKKLDLFSFLLMQYLLPTAAVPDLLMALWQRRFPLLTPLSYLAIGFSCWGMYYGLKRLTPSEGESPWQQMPALLARTIGGTIYMFHWLIIMPAVTARMAFRPKRLKWVKTVHGAATEDALELKQS | failed |
| MTEQAQYRDPRLVILYDRLNRWGADDDFFLALANETPGCRLLDLGCGTGRLTTALARAGHQVTGLEPARASLEVAQRKPGAEAVCWLQGSAQDAPTAAFDLCLMTAHVAQVFVEDDAWQDVLQHIHRALVPGGRLSFDMRDPAARAWDTWDSAGKRERLTLLDGSEAETWCDVLDVAGPIVSGPVVHFAEHTRFLPGQDVLTSTSRLRFRREDELRASLQAAGFAVEQVYGGWHGEPVGTGCGELVVVARRPG | failed |
| MGRISSGGMMFKAITTVAALVIATSAMAQDDLTISSLAKGETTKAAFNQMVQGHKLPAWVMKGGTYTPAQTVTLGDETYQVMSACKPHDCGSQRIAVMWSEKSNQMTGLFSTIDEKTSQEKLTWLNVNDALSIDGKTVLFAALTGSLENHPDGFNFK | not failed |
| MTTIFPPIPDRLRPLLRIAFMCGILATLPILCDVYAADEPPAARDEARPEEAAEPAATSAPAPAEQPVTFAITTILVERNTLFASDRLQEVMAPFVGDGKTADDVEKAREALEKFHHDQGYPTVIVNIPEQSVEEGIIRLQVVEQRINTVTVTGNRYFSREMILGKFPSLQPGGIPHVPTLQAEFTKAGRNPDLKITPAMAPSREVGYVDVELKIEEKLPLHGSLELNNRSSHDTSALRLNGAIRYDNLWQREHSVGLQYQTAPEKTREVQILSGSYVLPDPWHDDRRIVFYGVWSDTNTFASLGDMQVLGKGIIVGGRYLIPLAGKGLYNHSATLGIDYKRFDESAGFKTRVSYLPLSTAYDASLQDSTGYTLFNAGLNFAFRGAVTDQSEMAVKRSEAKGNYLAAILGLERQQKLPLGMGLRARIDGQLSSEPLIPNEQFVAGGMDSVRGYKESEALGDNGFHGTVELRVPDITLGSAMSMTPYVFYDMAAVELKKPLPGENRSQTLQGTGAGVRGMLFKFLEYQVDFAVALSDSDRIKEGDQRVHFRVSCAF | failed |
| MMIGENKNRPHPTIHIPQWDQINDPTATISSPFSSVNLNSVNDYPHSPSPYLDSFASLFRYLPSNELTNDSDSSSGDESSPLTDSFSSDEFRIYEFKIRRCARGRSHDWTECPFAHPGEKARRRDPRKFHYSGTACPEFRKGSCRRGDSCEFSHGVFECWLHPSRYRTQPCKDGTSCRRRICFFAHTTEQLRVLPCSLDPDLGFFSGLATSPTSILVSPSFSPPSESPPLSPSTGELIASMRKMQLNGGGCSWSSPMRSAVRLPFSSSLRPIQAATWPRIREFEIEEAPAMEFVESGKELRAEMYARLSRENSLG | failed |
| MATLPASKSASKVALTSEVEDEGIKEHTFQEIEKLQDLGINAADINKLKGSGYCTILSLIQTTKKELCNVKGISEAKVDKILEVASKIENCSSFITANELVQKRSKVLKITTGSTVFDQTLGGGIESMCITELFGENRCGKTQVCHTLAVTAQLPKSLNGGNGKVCYIDTEGTFRPEKVCKIAERYGLDGEAVLDNILYARAFTHEHLYQLLAISAAKMCEEPFALLVVDSIISLFRVDFSGRGELSERQQKLNKTMSILSKLSEQFNIAILITNQVMSDPGATMTFIANPMKPVGGHVIGHASTIRLSLRKGKGDQRVCKVYDAPNLPEVECIFQLSDKGVIDATD | failed |
| QVSKTYYVSKPGTLISMMTEEEANSITHLTLTGKLNAEDFRHLRDEFPSLKVLDISNAEIKMYSGKAGTYPNGKFYIYMANFVPAYAFSNVVNGVTKGKQTLEKVILSEKIKNIEDAAFKGCDNLKICQIRKKTAPNLLPEALADSVTAIFIPLGSSDAYRFKNRWEHFAFIEGEPLETTIQVGAMGKLEDEIMKAGLQPRDINFLTIEGKLDNADFKLIRDYMPNLVSLDISKTNATTIPDFTFAQKKYLLKIKLPHNLKTIGQRVFSNCGRLAGTLELPASVTAIEFGAFMGCDNLRYVLATGDKITTLGDELFGNGVPSKLIYKK | not failed |
| MGIFGWRTASLLKKAWQLYQQQHWSKAQQCARQVIEQTPQPEAYYLLGLIAEQLARPLEARTAYEQAIALDPWHAPSHYRLAVVLHALLQQPAAAVPHYQRALEVKPDWVEAHSNLGNAYLDLGDTEGAIACYQKALSLNPDLPTTLYNLGLCLHAQGKLTEATACYEQSLYLEPGQADVHNNLGSAYLELKNYTAATVHFQAALGANPELLVAHYNLGYALHLQGNLAAARDRYQEVLLRDNKHLRTLLQLGQICLAEEDLTGAIGYYQRCLSLDPLNSAAQAGLATALLESGDPQAALPYLRQAVALNPEAEDVRLKFALVLLMLEQFREGWQEYEWRWQQPTGGLRNYPQPRWQGQSLKGKTLFVYSEQGFRDCIQFVRLLPLMAKHAQRIIFEAYPPLVRLCQTLPGIEVMSTEETPPPFDYHTPLLSLPRYLGIDQDHFPKFKPYFPLPTRPPHPLFKVSKPRVGLVWASHSQTRTTVQRSCPLEYFLPLLQEFDVQWYSLQKERSPTEAEQLRQVGVIDCQPYMGDFLDTALLIQQLDAVVTIDTAVAHLAGALGKPLWILLPFVADWRWFWRRSRSPWYPSAELIRQPQRGDWPGAIAQLRSALQAHYRTRCNGIPN | failed |
| MILINKRAEKQDYQTILAIWEKSVIVTHDFLTAEDRQFYKEQIPLFLDNVELFLWFAGEEVIGFSGTSERELDMLFLDPVATGNGYGSQILGWLIENKRINLVDVNEQNENATRFYLKHGFVVSSRSDLDGFGKPYPILQLQLKERVNGV | not failed |
| PDMDPRCPARADPRKLHDAIARFGVNHLFGSPALLRVLAEYGKPLPTLRCVTSAGAPVPPYVVAQIRALLSDEAQFLTPYGATECLPIAVIESRE | failed |
| MAIGSLSSLGLGSKVLNYDVIDKLKDADEKALIAPLDKKMEQNVEKQKALVEIKTLLSALKGPVKTLSDYSTYISRKSNVTGDALSASVGVGVPIQDIKVDVQNLAQGDI | failed |
| MLRHILTAKNLLSNPIFKFPNCLPFLSTVCCICRQFVGENLCSFADSPSLFEMWFHFLQLRSALNISSALRQVVHGTRWHAKRKSYKVLFWREITPLAVPIFMENACVLLMGVLSTFLVSWLGKDAMAGVGLADSFNMVIMAFFAAIDLGTTVVVAFSLGKRDRRRARVATRQSLVIMTLFAVLLATLIHHFGEQIIDFVAGDATTEVKALALTYLELTVLSYPAAAITLIGSGALRGAGNTKIPLLINGSLNILNIIISGILIYGLFSWPGLGFVGAGLGLTISRYIGAVAILWVLAIGFNPALRISLKSYFKPLNFSIIWEVMGIGIPASVESVLFTSGRLLTQMFVAGMGTSVIAGNFIAFSIAALINLPGSALGSASTIITGRRLGVGQIAQAEIQLRHVFWLSTLGLTAIAWLTAPFAGVMASFYTQDPQVKHVVVILIWLNALFMPIWSASWVLPAGFKGARDARYAMWVSMLSMWGCRVVVGYVLGIMLGWGVVGVWMGMFADWAVRAVLFYWRMVTGRWLWKYPRPEPQKCEKKPVVSE | failed |
| SLLCGPLRLSESGETWSEVWAAIPMSDPQVLHLQGGSQDGRLPRTIPLPSCKLSVPDPEERLDSGHVWKLQWAKQSWYLSASSAELQQQWLETLSTAAH | not failed |
